Numbered stars: 1 amine (or outer) side, 2 acyl side, 3 side chain; on linkers, the order of the positions; unused ones are H or OH. Bridge positions count the residues as written; N and C are the ends. Square brackets hold non-standard residues; d marks the D form. Primed or numbered codes have the meaning given here. * marks the point of attachment. tMeBn(DOTA-PP) = 1,3,5-trimethylbenzylidene, two thioethers to Cys, third CH2 bound to one N of piperazine whose other N bears DOTA, O=C(O)CN1CCN(CC(=O)O)CCN(CC(=O)N2CCN(Cc3cc(C[*:1])cc(C[*:2])c3)CC2)CCN(CC(=O)O)CC1; Ttds″ = 1,13-diamino-4,7,10-trioxatridecan-succinamic acid spacer, O=C(CCC(=O)[*:2])NCCCOCCOCCOCCCN[*:1]; 3MeBn″ = 3-methylbenzylidene (meta-xylylene bridge from alpha,alpha'-dibromo-m-xylene); N4Ac = 6-Carboxy-1,4,8,11-tetraazaundecane, an N4-chelator, NCCNCC(CNCCN)C(=O)*; APAc = 2-(4-(Amino)piperidin-1-yl)acetic acid, O=C(CN1CCC(N[*:1])CC1)[*:2]; 3MeBn(3) = 3-methylbenzylidene (m-xylylene), from α,α′-dibromo-m-xylene; Biotin = O=C1N[C@H]2[C@H](CS[C@H]2CCCCC(=O)*)N1; γGlu = O=C(O)[C@H](CCC(=O)[*:2])N[*:1]; mXylylene = c1cc(C[*:1])cc(C[*:2])c1; Nle = CCCC[C@H](N)C(=O)O; Nphe = O=C(O)CNCc1ccccc1; Hexanoyl = CCCCCC(=O)*; Nleu = CC(C)CNCC(=O)O; Nlys = NCCCCNCC(=O)O; Mpa = O=C(O)CCS
B1: H-Met-[Cys(3MeBn)-Pro-Pro-Thr-Glu-Phe-Cys]-Asp-His-Phe-Arg-Asp-Ttds-Lys(Bio)-NH2 (peptide)
peptide: H-MCPPTEFCDHFRD[Ttds″]K(Biotin)-NH2
modifications: linker 2-8 via mXylylene
SMILES: CSCC[C@H](N)C(=O)N[C@H]1CSCc2cccc(c2)CSC[C@@H](C(=O)N[C@@H](CC(=O)O)C(=O)N[C@@H](Cc2c[nH]cn2)C(=O)N[C@@H](Cc2ccccc2)C(=O)N[C@@H](CCCNC(=N)N)C(=O)N[C@@H](CC(=O)O)C(=O)NCCCOCCOCCOCCCNC(=O)CCC(=O)N[C@@H](CCCCNC(=O)CCCC[C@@H]2SC[C@@H]3NC(=O)N[C@@H]32)C(N)=O)NC(=O)[C@H](Cc2ccccc2)NC(=O)[C@H](CCC(=O)O)NC(=O)[C@H]([C@@H](C)O)NC(=O)[C@@H]2CCCN2C(=O)[C@@H]2CCCN2C1=O
B2: [3MeBn-Spa-Pro-Pro-Thr-Gln-Phe-Cys]-Asp-NH2 (peptide)
peptide: [Mpa]PPTQFCD-NH2
modifications: linker 1-7 via mXylylene
SMILES: C[C@@H](O)[C@@H]1NC(=O)[C@@H]2CCCN2C(=O)[C@@H]2CCCN2C(=O)CCSCc2cccc(c2)CSC[C@@H](C(=O)N[C@@H](CC(=O)O)C(N)=O)NC(=O)[C@H](Cc2ccccc2)NC(=O)[C@H](CCC(N)=O)NC1=O
B3: Hex-[Cys(tMeBn(DOTA-PP))-Pro-Thr-Pro-Phe-Gln-Cys]-Asp-NH2 (peptide)
peptide: Hexanoyl-CPTPFQCD-NH2
modifications: linker 1-7 via tMeBn(DOTA-PP)
SMILES: CCCCCC(=O)N[C@H]1CSCc2cc(cc(CN3CCN(C(=O)CN4CCN(CC(=O)O)CCN(CC(=O)O)CCN(CC(=O)O)CC4)CC3)c2)CSC[C@@H](C(=O)N[C@@H](CC(=O)O)C(N)=O)NC(=O)[C@H](CCC(N)=O)NC(=O)[C@H](Cc2ccccc2)NC(=O)[C@@H]2CCCN2C(=O)[C@H]([C@@H](C)O)NC(=O)[C@@H]2CCCN2C1=O
B4: N4Ac-gGlu-Nle-[Cys-(3MeBn)-Pro-Pro-Thr-Glu-Phe-Cys]-OH (peptide)
peptide: N4Ac-[γGlu][Nle]CPPTEFC-OH
modifications: linker 3-9 via mXylylene
SMILES: CCCC[C@H](NC(=O)CC[C@H](NC(=O)C(CNCCN)CNCCN)C(=O)O)C(=O)N[C@H]1CSCc2cccc(c2)CSC[C@@H](C(=O)O)NC(=O)[C@H](Cc2ccccc2)NC(=O)[C@H](CCC(=O)O)NC(=O)[C@H]([C@@H](C)O)NC(=O)[C@@H]2CCCN2C(=O)[C@@H]2CCCN2C1=O
B5: Hex-[Cys(3MeBn)-Nleu-Pro-Thr-Gln-Phe-Cys]-NH2 (peptide)
peptide: Hexanoyl-C[Nleu]PTQFC-NH2
modifications: linker 1-7 via mXylylene
SMILES: CCCCCC(=O)N[C@H]1CSCc2cccc(c2)CSC[C@@H](C(N)=O)NC(=O)[C@H](Cc2ccccc2)NC(=O)[C@H](CCC(N)=O)NC(=O)[C@H]([C@@H](C)O)NC(=O)[C@@H]2CCCN2C(=O)CN(CC(C)C)C1=O
B6: Hex-[Cys(3MeBn)-Nlys-Pro-Thr-Gln-Phe-Cys]-NH2 (peptide)
peptide: Hexanoyl-C[Nlys]PTQFC-NH2
modifications: linker 1-7 via mXylylene
SMILES: CCCCCC(=O)N[C@H]1CSCc2cccc(c2)CSC[C@@H](C(N)=O)NC(=O)[C@H](Cc2ccccc2)NC(=O)[C@H](CCC(N)=O)NC(=O)[C@H]([C@@H](C)O)NC(=O)[C@@H]2CCCN2C(=O)CN(CCCCN)C1=O
B7: Hex-[Cys(tMeBn(DOTA-PP))-Phe-Gln-Thr-Pro-Pro-Cys]-Asp-NH2 (peptide)
peptide: Hexanoyl-CFQTPPCD-NH2
modifications: linker 1-7 via tMeBn(DOTA-PP)
SMILES: CCCCCC(=O)N[C@H]1CSCc2cc(cc(CN3CCN(C(=O)CN4CCN(CC(=O)O)CCN(CC(=O)O)CCN(CC(=O)O)CC4)CC3)c2)CSC[C@@H](C(=O)N[C@@H](CC(=O)O)C(N)=O)NC(=O)[C@@H]2CCCN2C(=O)[C@@H]2CCCN2C(=O)[C@H]([C@@H](C)O)NC(=O)[C@H](CCC(N)=O)NC(=O)[C@H](Cc2ccccc2)NC1=O
B8: Hex-[Cys(3MeBn)-Nphe-Pro-Thr-Gln-Phe-Cys]-NH2 (peptide)
peptide: Hexanoyl-C[Nphe]PTQFC-NH2
modifications: linker 1-7 via mXylylene
SMILES: CCCCCC(=O)N[C@H]1CSCc2cccc(c2)CSC[C@@H](C(N)=O)NC(=O)[C@H](Cc2ccccc2)NC(=O)[C@H](CCC(N)=O)NC(=O)[C@H]([C@@H](C)O)NC(=O)[C@@H]2CCCN2C(=O)CN(Cc2ccccc2)C1=O

The binders below were run against Recombinant human DPP4 (R&D systems, #9168-SE) (human) (UniProt P27487) (assay: cell-based or functional assay).
Chain of Recombinant human DPP4 (R&D systems, #9168-SE) (human) (P27487 29-766 limits assumed): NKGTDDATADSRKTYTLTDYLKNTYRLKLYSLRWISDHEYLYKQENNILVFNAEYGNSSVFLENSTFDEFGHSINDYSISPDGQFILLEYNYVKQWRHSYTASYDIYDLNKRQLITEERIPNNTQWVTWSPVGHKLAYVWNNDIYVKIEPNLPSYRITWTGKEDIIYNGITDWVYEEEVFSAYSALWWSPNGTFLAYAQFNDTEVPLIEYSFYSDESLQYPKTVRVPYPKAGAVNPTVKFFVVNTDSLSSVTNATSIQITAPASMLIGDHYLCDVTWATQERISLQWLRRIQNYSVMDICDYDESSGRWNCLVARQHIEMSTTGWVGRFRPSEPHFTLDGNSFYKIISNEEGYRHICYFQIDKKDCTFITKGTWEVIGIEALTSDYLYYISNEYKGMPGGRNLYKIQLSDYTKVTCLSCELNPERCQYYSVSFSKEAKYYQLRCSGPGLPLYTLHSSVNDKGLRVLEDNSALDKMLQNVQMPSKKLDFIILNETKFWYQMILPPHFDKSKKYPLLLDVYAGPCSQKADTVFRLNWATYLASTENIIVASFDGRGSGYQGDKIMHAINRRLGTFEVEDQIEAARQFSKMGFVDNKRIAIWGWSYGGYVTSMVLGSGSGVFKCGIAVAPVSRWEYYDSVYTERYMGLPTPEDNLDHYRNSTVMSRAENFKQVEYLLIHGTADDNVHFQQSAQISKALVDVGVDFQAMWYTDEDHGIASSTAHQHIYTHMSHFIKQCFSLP

Row | Binder | pIC50 (DPP4) [pIC50]
1 | Hexanoyl-CPPTEFC-NH2 (linker 1-7 via 3MeBn″) [Hex-[Cys(3MeBn)-Pro-Pro-Thr-Glu-Phe-Cys]-NH2] | < 6
2 | B1 | < 6
3 | B2 | < 6

The binders below were run against recombinant human PREP (R&D systems, #4308-SE) (human) (UniProt P48147) (assay: cell-based or functional assay).
Chain of recombinant human PREP (R&D systems, #4308-SE) (human) (P48147 whole entry): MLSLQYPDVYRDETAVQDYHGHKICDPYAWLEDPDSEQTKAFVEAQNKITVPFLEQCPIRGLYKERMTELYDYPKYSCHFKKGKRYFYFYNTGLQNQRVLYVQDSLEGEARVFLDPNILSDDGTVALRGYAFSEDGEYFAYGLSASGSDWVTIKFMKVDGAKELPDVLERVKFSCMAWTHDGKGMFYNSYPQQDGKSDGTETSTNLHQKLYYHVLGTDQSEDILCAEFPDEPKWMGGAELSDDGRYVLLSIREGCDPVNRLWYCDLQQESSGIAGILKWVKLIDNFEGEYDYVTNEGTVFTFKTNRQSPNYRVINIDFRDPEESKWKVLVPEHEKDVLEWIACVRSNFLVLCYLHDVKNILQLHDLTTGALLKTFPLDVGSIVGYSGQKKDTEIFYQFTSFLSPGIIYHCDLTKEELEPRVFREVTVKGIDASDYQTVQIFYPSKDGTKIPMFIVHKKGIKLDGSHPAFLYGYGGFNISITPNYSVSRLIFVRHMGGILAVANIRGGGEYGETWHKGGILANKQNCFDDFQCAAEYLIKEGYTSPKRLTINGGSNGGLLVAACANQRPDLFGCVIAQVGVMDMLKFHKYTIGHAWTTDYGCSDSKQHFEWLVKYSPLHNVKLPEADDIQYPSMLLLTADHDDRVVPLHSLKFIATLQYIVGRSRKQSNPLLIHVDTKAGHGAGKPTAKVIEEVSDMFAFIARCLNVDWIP

Row | Binder | pIC50 (PREP) [pIC50]
4 | Hexanoyl-CPPTEFC-NH2 (linker 1-7 via 3MeBn″) [Hex-[Cys(3MeBn)-Pro-Pro-Thr-Glu-Phe-Cys]-NH2] | < 6
5 | B1 | < 6
6 | B2 | < 6

What follows are binders tested against human fibroblast activation protein (FAP) on WI-38 fibroblasts (human) (UniProt Q12884) (assay: competitive FACS, WI-38 cells, Cy5-labeled peptide as competitor).

Row | Binder | pIC50 Category (FACS) [pIC50]
7 | B3 | < 6
8 | N4Ac-[APAc][Nle]CPPTEFC-OH (linker 3-9 via 3MeBn(3)) [N4Ac-APAc-Nle-[Cys-(3MeBn)-Pro-Pro-Thr-Glu-Phe-Cys]-OH] | < 6
9 | B4 | < 6
10 | B5 | < 6
11 | B6 | < 6
12 | B7 | < 6
13 | B8 | < 6

Reference: US20230212549A1, “COMPOUNDS COMPRISING A […] LIGAND AND USE THEREOF” (priority 2021, published 2023)
